Experimental data as given in PMC9894260 (Proceedings of the National Academy of Sciences of the …, 2022).

T1: ARPC1 (subunit of fission yeast Arp2/3 complex) (S. pombe, UniProt P78774)
T1 sequence: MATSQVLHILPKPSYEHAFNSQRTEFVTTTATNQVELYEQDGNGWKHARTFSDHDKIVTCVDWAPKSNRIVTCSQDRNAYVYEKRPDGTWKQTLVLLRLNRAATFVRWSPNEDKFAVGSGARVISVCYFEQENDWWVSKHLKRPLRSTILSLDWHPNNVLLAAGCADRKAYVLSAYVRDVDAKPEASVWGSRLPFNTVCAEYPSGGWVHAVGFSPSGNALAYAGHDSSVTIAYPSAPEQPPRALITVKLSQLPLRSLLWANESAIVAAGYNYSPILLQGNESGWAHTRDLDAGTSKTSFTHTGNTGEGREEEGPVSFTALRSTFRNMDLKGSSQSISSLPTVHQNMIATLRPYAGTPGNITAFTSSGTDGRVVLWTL

B1: ARPC4 (subunit of fission yeast Arp2/3 complex) (natural protein)
chain: not shown
B2: ARPC3 (subunit of fission yeast Arp2/3 complex) (natural protein)
chain: MPAYHSSFLSLTDVPTTGNIAMLPLKTKFRGPAYPADESQMDIIDECIGLFRANCFFRNFEIKGPADRTLIYGTLFISECLGRVNGLNYRDAERQLNSLALENFSIPGSAGFPLNALYAPPLSPQDAEIMRTYLTQFRQELAYRLLSHVYATEKDHPSKWWTCFSKRRFMNKAL
B3: ARPC2 (subunit of fission yeast Arp2/3 complex) (natural protein)
chain: MLSLDYNNIFIYELLTERFSSENPSSIDQVVTDFDGVTFHISTPEEKTKILISLSMKCYPELVNYGTLDLLKQIYGAYVHEPEMGYNFSILIDLQQLPATDEEKEQLAMSISMLKRNVLAAPFHRAFTKQAELADLARKDPENAPMLDKQATSQELMAIHYRDEETIVLWPEHDRVTVVFSTKFREETDRIFGKVFLQEFVDARRRPAIQTAPQVLFSYRDPPLEIRDIQGIQKGDDFGFVTFVLFERHFTPQNREDCISHIQVFRNTLHFHIKASKAYMHQRMRKRVADFQKVLNRAKPDVELERKTATGRSFVRA

What was measured:
Test in all cases: cryo-EM structure
[1] = molecular target: T1, ARPC1 (subunit of fission yeast Arp2/3 …)
[2] = molecular target: B3
[3] = molecular target: Arp2 (subunit of fission yeast Arp2/3 complex) (S. pombe, UniProt Q9UUJ1)
Arp2 (subunit of fission yeast Arp2/3 complex), sequence (Q9UUJ1 whole entry, one chain of several): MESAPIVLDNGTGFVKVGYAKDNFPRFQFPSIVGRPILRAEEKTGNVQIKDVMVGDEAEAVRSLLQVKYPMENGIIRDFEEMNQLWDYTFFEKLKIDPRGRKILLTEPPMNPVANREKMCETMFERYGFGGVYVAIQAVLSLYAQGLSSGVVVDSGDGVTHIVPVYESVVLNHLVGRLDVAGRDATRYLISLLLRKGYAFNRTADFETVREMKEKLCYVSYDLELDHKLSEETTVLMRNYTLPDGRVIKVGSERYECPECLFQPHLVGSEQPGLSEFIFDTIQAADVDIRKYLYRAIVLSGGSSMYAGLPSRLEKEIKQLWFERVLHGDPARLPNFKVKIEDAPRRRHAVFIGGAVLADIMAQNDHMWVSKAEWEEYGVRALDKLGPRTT

binding result [1]	binding result [2]	binding result [3]	Binder
binds	binds		B1
		binds	B2
binds		binds	B3
